Source: PMC4731787, “Structural basis for the recognition of two consecutive mutually interacting DPF motifs by the SGIP1 μ homology domain” (Scientific Reports, 2016)
Like-named read-outs stand apart in the source and are kept apart here. Blank lines part the entries; values can stand above or below the molecule they belong to.

Columns and labels:
[1] = molecular target: T1, SGIP1 μHD (residues 552 to 828) (Homo sapiens, UniProt Q9BQI5); assay: ITC of Eps15 fragments with the SGIP1 μHD; type: binding; settings: for Kd / -TΔS / ΔG / ΔH / -TΔS, second site / ΔG, second site / ΔH, second site: 25 °C; for Kd: 50 mM Tris-HCl pH 8.0, 50 mM NaCl, global fit of two runs; for -TΔS / ΔG / ΔH / -TΔS, second site / ΔG, second site / ΔH, second site / N (binding ratio of Eps15 fragment to μHD) / N, second site: fragment in cell titrated with μHD; for N, second site: second site (N identical for both sites)
T1 construct: the SGIP1 μHD (residues 552 to 828); GST (N, cleaved yes); made in house; host or cells: Escherichia coli BL21-Gold (DE3) or Rosetta2
T1 sequence (Q9BQI5 552-828): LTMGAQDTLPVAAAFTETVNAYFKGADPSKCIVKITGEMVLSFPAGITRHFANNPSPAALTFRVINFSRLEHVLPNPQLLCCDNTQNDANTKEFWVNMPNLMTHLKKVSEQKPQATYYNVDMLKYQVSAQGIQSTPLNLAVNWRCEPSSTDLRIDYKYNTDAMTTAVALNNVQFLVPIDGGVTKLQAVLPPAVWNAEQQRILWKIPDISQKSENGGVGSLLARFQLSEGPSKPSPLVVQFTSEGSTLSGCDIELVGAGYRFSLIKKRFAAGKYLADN
Protocol: (§1) For the majority of the ITC experiments, the SGIP1 μHD, its mutants, or the FCHo1 μHD, in 50 mM Tris-HCl buffer (pH 8.0) containing 50 mM NaCl, was loaded in the sample cell, in a volume of 1.42 ml, and titrated with various Eps15-derived fragments or peptides in the same buffer, with an initial 5 μl injection and subsequent 10 μl injections, for a total of 25 injections. The titrations were performed while the samples were stirred at 310 r.p.m. at 25 °C. Each injection was followed by an interval of 4 min, to allow baseline stabilization. For the other ITC experiments indicated in Supplementary Table 2, the Eps15-derived fragments or peptides in the sample cell were titrated with the SGIP1 or FCHo1 μHD. All ITC experiments were performed on a VP-ITC microcalorimeter (MicroCal, LLC) and repeated twice, and the data were processed with the program NITPIC[42]. The two data sets from each ITC experiment were analyzed by global weighted least-squares fitting with the program SEDPHAT[43]. Figures for the ITC data were created with the program GUSSI (http://biophysics.swmed.edu/MBR/software.html). To obtain the values of the traditional stoichiometric parameter N in our ITC data analyses (Supplementary Table 2), we used the values of the parameters of the incompetent fractions of proteins and ligands. […] The values of the incompetent fractions are between 0 and 1, whereas the other parameter affecting the traditional parameter N, the number of sites, was fixed as 1 and 2, for the single- and two-site models, respectively. Thus, in the two-site model, the values of N for the first and second sites are identical in our ITC data analyses (Supplementary Table 2).

[2] = molecular target: T2, FCHo1 µHD (residues 623 to 889) (Homo sapiens, UniProt O14526); assay: ITC of Eps15 fragments with the FCHo1 μHD; type: binding; settings: for Kd / -TΔS / ΔG / ΔH: 25 °C; for Kd: 50 mM Tris-HCl pH 8.0, 50 mM NaCl, global fit of two runs; for Kd / -TΔS / ΔG / ΔH / N (binding ratio of Eps15 fragment to FCHo1 μHD): single-site model; for Kd / ΔH / N (binding ratio of Eps15 fragment to FCHo1 μHD): ± 68.3% confidence interval
T2 construct: GST (N, cleaved yes); made in house; host or cells: Escherichia coli (as for the SGIP1 μHD)
T2 sequence (O14526 623-889): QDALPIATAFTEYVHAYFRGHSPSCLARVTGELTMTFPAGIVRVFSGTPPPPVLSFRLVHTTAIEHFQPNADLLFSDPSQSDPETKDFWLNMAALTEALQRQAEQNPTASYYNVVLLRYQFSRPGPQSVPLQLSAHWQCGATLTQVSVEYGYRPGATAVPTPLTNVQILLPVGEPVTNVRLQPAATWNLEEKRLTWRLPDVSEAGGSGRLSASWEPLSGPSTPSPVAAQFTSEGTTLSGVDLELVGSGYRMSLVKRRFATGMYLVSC
Protocol: as §1

[3] = molecular target: α-adaptin appendage domain (residues 711 to 955); assay: ITC of Eps15 fragments with the α-adaptin appendage domain; type: binding, human
[4] = molecular target: appendage domain of human α-adaptin, residues 711 to 955 (human) (UniProt O95782); assay: ITC; µHD, µHD mutant or α-adaptin appendage domain in the sample cell, titrated with the Eps15 fragment or peptide; 50 mM Tris-HCl (pH 8.0), 50 mM NaCl, 25 °C; VP-ITC; two data sets fitted globally (NITPIC, SEDPHAT); single-site model
[5] = molecular target: T3, SGIP1 µ homology domain (µHD), residues 552 to 828 (human, UniProt Q9BQI5-1 552-828); assay: as above; settings: both partners purified
T3 construct: pGEX-6P-1 construct cut with 3C protease; also called SGIP1 µHD; human SGIP1 µHD (aa552–828); source: E. coli BL21-Gold (DE3) or Rosetta2, purified (Glutathione Sepharose 4B, 3C protease cleavage, Superdex 200)
T3 sequence (looked up): T1 sequence (Q9BQI5 552-828)

[6] = molecular target: T4, FCHo1 µ homology domain (µHD), residues 623 to 889 (human, UniProt O14526-1 623-889); assay: as above; settings: both partners purified
T4 construct: also called FCHo1 µHD; human FCHo1 µHD (aa623–889); source: E. coli, expressed and purified in the same manner as the SGIP1 µHD
T4 sequence (looked up): T2 sequence (O14526 623-889)

[7] = molecular target: T5, SGIP1 μ homology domain (residues 552 to 828) (human, UniProt Q9BQI5-1 552-828); assay: ITC; VP-ITC, 25 °C, 50 mM Tris-HCl pH 8.0, 50 mM NaCl; for the majority the μHD (SGIP1, its mutants or FCHo1) in the cell, titrated with Eps15 fragments or peptides, for others the reverse (Supplementary Table 2); repeated twice, global fit with SEDPHAT, single-site or two-site model; settings: both partners purified
T5 construct: A SeMet-substituted form (E. coli B834(DE3)) was used only for the structure of the domain alone; also called SGIP1 μHD; μHD; source: E. coli BL21-Gold (DE3) or Rosetta2, purified (Glutathione Sepharose, 3C protease cleavage on the column, Superdex 200)
T5 sequence (looked up): T1 sequence (Q9BQI5 552-828)

[8] = Eps15 fragment in cell titrated with SGIP1 μHD, two-site model, second site, 68.3% confidence interval, read-out: Kd, second site
[9] = Eps15 fragment in sample cell titrated with SGIP1 μHD, single-site model, ± 68.3% confidence interval, read-out: Kd
[10] = single-site model, ± 68.3% confidence interval
[11] = two-site model, first site, ± 68.3% confidence interval
[12] = two-site model, second site, 68.3% confidence interval
[13] = two-site model, first site (N identical for both sites), ± 68.3% confidence interval
[14] = two-site model, ± 68.3% confidence interval
[15] = FCHo1 μHD in cell titrated with fragment
[16] = fragment in cell titrated with μHD (Experiment 37a)

Kd [1, 8]: 55500 nM
Kd [1, 9]: 420 ± 250 nM
-TΔS ([1]; single-site model): 0.278 kcal/mol
ΔG ([1]; single-site model): -8.704 kcal/mol
ΔH [1, 10]: -8.982 ± 0.639 kcal/mol
-TΔS ([1]; two-site model, first site): -2.345 kcal/mol
ΔG ([1]; two-site model, first site): -9.805 kcal/mol
ΔH [1, 11]: -7.46 ± 0.168 kcal/mol
-TΔS, second site ([1]; two-site model, second site): 3.722 kcal/mol
ΔG, second site ([1]; two-site model, second site): -5.906 kcal/mol
ΔH, second site [1, 12]: -9628 (< -6103) cal/mol
N (binding ratio of Eps15 fragment to μHD) [1, 10]: 0.81 ± 0.04
N (binding ratio of Eps15 fragment to μHD) [1, 13]: 0.88 ± 0.02
N, second site [1, 14]: 0.88 ± 0.02
Strength of affinity ([1]; human SGIP1 µHD (aa552–828), Supplementary Table 3, This study): high
Kd for the FCHo1 μHD (in words) [2]: in the nanomolar range
Kd ([2]; Eps15 fragment in cell titrated with μHD (Experiment 37a)): 190 ± 90 nM
Kd [2, 15]: 270 ± 100 nM
-TΔS [2, 15]: 0.672 kcal/mol
ΔG [2, 15]: -8.966 kcal/mol
ΔH [2, 15]: -9.638 ± 0.381 kcal/mol
-TΔS [2, 16]: -1.572 kcal/mol
ΔG [2, 16]: -9.158 kcal/mol
ΔH [2, 16]: -7.586 ± 0.398 kcal/mol
N (binding ratio of Eps15 fragment to FCHo1 μHD) [2, 15]: 0.59 ± 0.02
N (binding ratio of Eps15 fragment to FCHo1 μHD) [2, 16]: 0.70 ± 0.03
Strength of affinity ([2]; human FCHo1 µHD (aa623–889), Supplementary Table 3, This study): high
Molecule: Eps15-618–654: Eps15 fragment, 37-residue region containing six consecutive DPF motifs; high-affinity binding site (DFFQSDPFVGSDPFKDDPFGKIDPFGGDPFKGSDPFA; UniProt P42566 618-654, looked up, fragment)

Kd for the α-adaptin appendage domain (in words) [3]: in the nanomolar range
Kd ([3]; 25 °C, appendage domain titrated with Eps15 fragment, single-site model, global fit of two runs, ± 68.3% confidence interval): 270 ± 130 nM
Molecule: Eps15-661–720: Eps15 fragment spanning residues 661 to 720, 4 DPF motifs (QSTDPFATSSTDPFSAANNSSITSVETLKHNDPFAPGGTVVAASDSATDPFASVFGNESF; UniProt P42566 661-720, looked up, fragment)
-TΔS ([3]; 25 °C, single-site model): 5.961 kcal/mol
ΔG ([3]; 25 °C, single-site model): -8.97 kcal/mol
ΔH ([3]; 25 °C, single-site model, ± 68.3% confidence interval): -14.931 ± 1.892 kcal/mol

Kd [4]: 690 nM
stoichiometry N [4]: 1.19
B1: Eps15-661–790 (domain or fragment)
chain: GPLGSYQSTDPFATSSTDPFSAANNSSITSVETLKHNDPFAPGGTVVAASDSATDPFASVFGNESFGGGFADFSTLSKVNNEDPFRSATSSSVSNVVITKNVFEETSVKSEDEPPALPPKIGTPTRPCPLPPGKRSW

Kd [5]: 2900 nM
stoichiometry N [5]: 0.66
stoichiometry N [6]: 0.64
B2: Eps15-640–654 (peptide)
peptide: Ac-YDPFGGDPFKGSDPFA-NH2
notes: artificial N-terminal Tyr; source: synthetic peptide (Eurofins Genomics)

Kd [7]: ~400 nM
B3: Eps15-618–648 (domain or fragment, human, UniProt P42566-1 618-648, looked up)
chain: DFFQSDPFVGSDPFKDDPFGKIDPFGGDPFK
notes: source: E. coli, purified in the same manner as for the SGIP1 μHD

Kd [4]: 270 nM
stoichiometry N [4]: 0.47
B4: Eps15-661–720 (domain or fragment)
chain: GPLGSYQSTDPFATSSTDPFSAANNSSITSVETLKHNDPFAPGGTVVAASDSATDPFASVFGNESF

Kd [1, 8]: 27300 ± 15700 nM
Kd [1, 9]: 4500 ± 2200 nM
-TΔS ([1]; single-site model): 3.678 kcal/mol
ΔG ([1]; single-site model): -7.296 kcal/mol
ΔH [1, 10]: -10.974 ± 0.504 kcal/mol
-TΔS ([1]; two-site model, first site): -4.297 kcal/mol
ΔG ([1]; two-site model, first site): -9.374 kcal/mol
ΔH [1, 11]: -5.077 ± 0.308 kcal/mol
-TΔS, second site ([1]; two-site model, second site): 2.744 kcal/mol
ΔG, second site ([1]; two-site model, second site): -6.226 kcal/mol
ΔH, second site [1, 12]: -8.97 ± 1.643 kcal/mol
N (binding ratio of Eps15 fragment to μHD) [1, 10]: 0.76 ± 0.11
N (binding ratio of Eps15 fragment to μHD) [1, 13]: 0.96 ± 0.04
N, second site [1, 14]: 0.96 ± 0.04
Kd of the high-affinity site (two-site model) [7]: ~130 nM
B5: Eps15-530–896 (domain or fragment, human, UniProt P42566-1 530-896, looked up)
chain: STSSSETANLNEHVEGQSNLESEPIHQESPARSSPELLPSGVTDENEVTTAVTEKVCSELDNNRHSKEEDPFNVDSSSLTGPVADTNLDFFQSDPFVGSDPFKDDPFGKIDPFGGDPFKGSDPFASDCFFRQSTDPFATSSTDPFSAANNSSITSVETLKHNDPFAPGGTVVAASDSATDPFASVFGNESFGGGFADFSTLSKVNNEDPFRSATSSSVSNVVITKNVFEETSVKSEDEPPALPPKIGTPTRPCPLPPGKRSINKLDSPDPFKLNDPFQPFPGNDSPKEKDPEIFCDPFTSATTTTNKEADPSNFANFSAYPSEEDMIEWAKRESEREEEQRLARLNQQEQEDLELAIALSKSEISEA
notes: also called C-terminal fragment of human Eps15; source: E. coli, purified (Ni Sepharose, thrombin, Glutathione Sepharose, 3C protease, Superdex 200); not shown: GST, N-terminal, cleaved; His tag, C-terminal, cleaved
